In patent publication US8530245B2 one finds Percent of B cells that were AChR+ (lymph node, mean) data, which are given here for two substances.

This experiment concerns the target Alexa Fluor-AChR conjugate (acetylcholine receptor purified from Torpedo californica electric organs, labelled with Alexa Fluor 488 or 647) (Torpedo californica) (UniProt P02710). As to the kind of experiment: flow cytometry, CD19+ B cells stained with Alexa-AChR.

Turning to “B cells (CD19+ or B220+) from CFA+AChR-immunized C57BL/6 mice with EAMG (spleen, lymph node, peripheral blood) (cells without a defined receptor)”, the Percent of B cells that were AChR+ (lymph node, mean) came to 10.4%.
Next, “B cells from unimmunized naive C57BL/6 mice (cells without a defined receptor)”: 5.6%.
